T1: TJP3_3, O95049
T1 sequence (O95049 375-456, limits assumed, looked up): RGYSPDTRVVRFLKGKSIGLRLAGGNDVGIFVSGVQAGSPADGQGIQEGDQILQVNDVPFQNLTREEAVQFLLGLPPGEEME

T2: HTRA4, P83105
T2 sequence (P83105 378-476, limits assumed, looked up): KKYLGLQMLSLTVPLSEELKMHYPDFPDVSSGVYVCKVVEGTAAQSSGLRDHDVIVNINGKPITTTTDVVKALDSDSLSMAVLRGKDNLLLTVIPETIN

T3: GRIP1_4, Q9Y3R0
T3 sequence (Q9Y3R0 467-571, limits assumed, looked up): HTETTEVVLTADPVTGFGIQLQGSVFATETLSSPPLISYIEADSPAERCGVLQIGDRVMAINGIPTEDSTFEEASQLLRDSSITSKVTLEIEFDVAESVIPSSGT

T4: GRIP1_5, Q9Y3R0
T4 sequence (Q9Y3R0 568-668, limits assumed, looked up): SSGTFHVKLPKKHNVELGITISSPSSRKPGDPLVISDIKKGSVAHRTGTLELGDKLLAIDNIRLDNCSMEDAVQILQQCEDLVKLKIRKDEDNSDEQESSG

T5: APBA1_1, Q02410
T5 sequence (Q02410 651-752, limits assumed, looked up): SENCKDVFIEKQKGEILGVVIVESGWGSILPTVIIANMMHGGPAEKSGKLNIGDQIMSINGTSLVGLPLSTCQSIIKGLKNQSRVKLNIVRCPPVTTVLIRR

T6: APBA1_2, Q02410
T6 sequence (Q02410 742-832, limits assumed, looked up): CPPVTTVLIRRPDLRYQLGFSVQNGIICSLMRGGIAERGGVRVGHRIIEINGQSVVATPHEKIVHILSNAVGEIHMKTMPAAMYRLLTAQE

T7: FRMPD1, Q5SYB0
T7 sequence (Q5SYB0 52-145, limits assumed, looked up): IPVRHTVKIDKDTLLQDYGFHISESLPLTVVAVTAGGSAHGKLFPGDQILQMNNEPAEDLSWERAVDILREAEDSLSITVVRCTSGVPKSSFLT

T8: DFNB31_2, Q9P202
T8 sequence (Q9P202 274-371, limits assumed, looked up): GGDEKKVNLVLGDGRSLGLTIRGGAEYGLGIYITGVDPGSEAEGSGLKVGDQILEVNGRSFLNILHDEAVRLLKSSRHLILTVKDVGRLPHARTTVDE

T9: PDZRN3_1, Q9UPQ7
T9 sequence (Q9UPQ7 244-349, limits assumed, looked up): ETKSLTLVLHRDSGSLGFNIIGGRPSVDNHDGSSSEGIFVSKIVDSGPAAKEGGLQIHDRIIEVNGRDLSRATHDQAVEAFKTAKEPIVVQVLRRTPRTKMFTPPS

T10: TIAM2, Q8IVF5
T10 sequence (Q8IVF5 885-986, limits assumed, looked up): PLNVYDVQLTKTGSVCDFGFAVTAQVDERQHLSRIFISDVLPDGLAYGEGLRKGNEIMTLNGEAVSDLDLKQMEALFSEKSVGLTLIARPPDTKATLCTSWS

T11: MPDZ_10, O75970
T11 sequence (O75970 1624-1722, limits assumed, looked up): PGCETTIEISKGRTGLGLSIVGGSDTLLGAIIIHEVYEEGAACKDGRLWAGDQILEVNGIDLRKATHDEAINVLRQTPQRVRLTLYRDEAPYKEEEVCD

T12: HTRA3, P83110
T12 sequence (P83110 354-453, limits assumed, looked up): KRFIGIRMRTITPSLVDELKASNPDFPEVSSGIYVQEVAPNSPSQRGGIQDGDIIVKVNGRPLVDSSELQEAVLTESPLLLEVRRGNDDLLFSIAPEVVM


Molecular target: NOS1, P29475
Assay: holdup assay
Set-up: key: below the threshold = too weak to quantify, mostly under pKd 3.1 to 4
Conditions: plain residues with an end cap or a label only (N-terminal biotin on a linker: ahx)

Sequence of NOS1, P29475 (P29475 9-101): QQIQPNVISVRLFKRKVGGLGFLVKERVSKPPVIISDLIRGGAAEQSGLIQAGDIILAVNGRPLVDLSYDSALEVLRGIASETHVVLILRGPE

| pKd | Binder |
| --- | --- |
| below the threshold | GYDWGPATDL [TJP3, O95049] |

Molecular target: TJP2_1, Q9UDY2
Assay: holdup assay
Set-up: key: below the threshold = too weak to quantify, mostly under pKd 3.1 to 4
Conditions: plain residues with an end cap or a label only (N-terminal biotin on a linker: ahx)

Sequence of TJP2_1, Q9UDY2 (Q9UDY2 24-128): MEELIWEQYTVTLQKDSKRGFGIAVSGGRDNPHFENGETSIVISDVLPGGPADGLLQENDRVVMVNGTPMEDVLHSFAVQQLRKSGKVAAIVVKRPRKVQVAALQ

| pKd | Binder |
| --- | --- |
| below the threshold | GYDWGPATDL [TJP3, O95049] |

Molecular target: GIPC2, Q8TF65
Assay: holdup assay
Set-up: key: below the threshold = too weak to quantify, mostly under pKd 3.1 to 4
Conditions: plain residues with an end cap or a label only (N-terminal biotin on a linker: ahx)

Sequence of GIPC2, Q8TF65 (Q8TF65 112-203): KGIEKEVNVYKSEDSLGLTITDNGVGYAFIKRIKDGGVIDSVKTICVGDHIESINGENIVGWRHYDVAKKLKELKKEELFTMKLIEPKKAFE

| pKd | Binder |
| --- | --- |
| 3.73 | GYDWGPATDL [TJP3, O95049] |

Molecular target: Inadl_4, Q8NI35
Assay: holdup assay
Set-up: key: below the threshold = too weak to quantify, mostly under pKd 3.1 to 4
Conditions: plain residues with an end cap or a label only (N-terminal biotin on a linker: ahx)

Sequence of Inadl_4, Q8NI35 (Q8NI35 547-651): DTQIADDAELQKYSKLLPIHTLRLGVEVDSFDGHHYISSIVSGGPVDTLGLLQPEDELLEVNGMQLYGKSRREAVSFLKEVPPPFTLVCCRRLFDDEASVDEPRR

| pKd | Binder |
| --- | --- |
| below the threshold | GYDWGPATDL [TJP3, O95049] |

Molecular target: T1, TJP3_3, O95049
Assay: holdup assay
Set-up: key: below the threshold = too weak to quantify, mostly under pKd 3.1 to 4
Conditions: plain residues with an end cap or a label only (N-terminal biotin on a linker: ahx)

| pKd | Binder |
| --- | --- |
| below the threshold | GYDWGPATDL [TJP3, O95049] |

Molecular target: DLG4_3, P78352
Assay: holdup assay
Set-up: key: below the threshold = too weak to quantify, mostly under pKd 3.1 to 4
Conditions: plain residues with an end cap or a label only (N-terminal biotin on a linker: ahx)

Sequence of DLG4_3, P78352 (P78352 306-403): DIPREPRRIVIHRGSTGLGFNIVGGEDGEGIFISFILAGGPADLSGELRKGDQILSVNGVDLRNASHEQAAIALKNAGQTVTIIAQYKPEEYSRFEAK

| pKd | Binder |
| --- | --- |
| below the threshold | GYDWGPATDL [TJP3, O95049] |

Molecular target: Inadl_3, Q8NI35
Assay: holdup assay
Set-up: key: below the threshold = too weak to quantify, mostly under pKd 3.1 to 4
Conditions: plain residues with an end cap or a label only (N-terminal biotin on a linker: ahx)

Sequence of Inadl_3, Q8NI35 (Q8NI35 359-469): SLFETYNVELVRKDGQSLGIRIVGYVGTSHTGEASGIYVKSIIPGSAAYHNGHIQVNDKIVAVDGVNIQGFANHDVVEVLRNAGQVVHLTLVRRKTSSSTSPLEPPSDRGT

| pKd | Binder |
| --- | --- |
| 3.72 | GYDWGPATDL [TJP3, O95049] |

Molecular target: SCRIB_3, Q14160
Assay: holdup assay
Set-up: key: below the threshold = too weak to quantify, mostly under pKd 3.1 to 4
Conditions: plain residues with an end cap or a label only (N-terminal biotin on a linker: ahx)

Sequence of SCRIB_3, Q14160 (Q14160 999-1103): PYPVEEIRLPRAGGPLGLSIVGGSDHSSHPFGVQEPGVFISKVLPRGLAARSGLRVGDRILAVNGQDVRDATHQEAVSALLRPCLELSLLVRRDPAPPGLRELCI

| pKd | Binder |
| --- | --- |
| 4.93 | GYDWGPATDL [TJP3, O95049] |

Molecular target: Inadl_1, Q8NI35
Assay: holdup assay
Set-up: key: below the threshold = too weak to quantify, mostly under pKd 3.1 to 4
Conditions: plain residues with an end cap or a label only (N-terminal biotin on a linker: ahx)

Sequence of Inadl_1, Q8NI35 (Q8NI35 113-229): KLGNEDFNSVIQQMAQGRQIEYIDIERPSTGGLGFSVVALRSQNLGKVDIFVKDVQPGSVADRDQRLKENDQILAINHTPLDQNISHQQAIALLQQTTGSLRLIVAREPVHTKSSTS

| pKd | Binder |
| --- | --- |
| below the threshold | GYDWGPATDL [TJP3, O95049] |

Molecular target: HTRA1, Q92743
Assay: holdup assay
Set-up: key: below the threshold = too weak to quantify, mostly under pKd 3.1 to 4
Conditions: plain residues with an end cap or a label only (N-terminal biotin on a linker: ahx)

Sequence of HTRA1, Q92743 (Q92743 360-477): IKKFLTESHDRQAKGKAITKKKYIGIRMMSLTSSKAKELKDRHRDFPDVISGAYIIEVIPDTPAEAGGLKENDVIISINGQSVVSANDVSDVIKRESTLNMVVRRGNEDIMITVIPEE

| pKd | Binder |
| --- | --- |
| 4.12 | GYDWGPATDL [TJP3, O95049] |

Molecular target: T2, HTRA4, P83105
Assay: holdup assay
Set-up: key: below the threshold = too weak to quantify, mostly under pKd 3.1 to 4
Conditions: plain residues with an end cap or a label only (N-terminal biotin on a linker: ahx)

| pKd | Binder |
| --- | --- |
| below the threshold | GYDWGPATDL [TJP3, O95049] |

Molecular target: GOPC, Q9HD26
Assay: holdup assay
Set-up: key: below the threshold = too weak to quantify, mostly under pKd 3.1 to 4
Conditions: plain residues with an end cap or a label only (N-terminal biotin on a linker: ahx)

| pKd | Binder |
| --- | --- |
| 3.93 | GYDWGPATDL [TJP3, O95049] |

Molecular target: T3, GRIP1_4, Q9Y3R0
Assay: holdup assay
Set-up: key: below the threshold = too weak to quantify, mostly under pKd 3.1 to 4
Conditions: plain residues with an end cap or a label only (N-terminal biotin on a linker: ahx)

| pKd | Binder |
| --- | --- |
| below the threshold | GYDWGPATDL [TJP3, O95049] |

Molecular target: T4, GRIP1_5, Q9Y3R0
Assay: holdup assay
Set-up: key: below the threshold = too weak to quantify, mostly under pKd 3.1 to 4
Conditions: plain residues with an end cap or a label only (N-terminal biotin on a linker: ahx)

| pKd | Binder |
| --- | --- |
| below the threshold | GYDWGPATDL [TJP3, O95049] |

Molecular target: SCRIB_2, Q14160
Assay: holdup assay
Set-up: key: below the threshold = too weak to quantify, mostly under pKd 3.1 to 4
Conditions: plain residues with an end cap or a label only (N-terminal biotin on a linker: ahx)

Sequence of SCRIB_2, Q14160 (Q14160 857-960): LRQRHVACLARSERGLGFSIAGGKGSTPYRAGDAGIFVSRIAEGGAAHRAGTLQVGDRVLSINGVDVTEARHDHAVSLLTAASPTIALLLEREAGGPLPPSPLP

| pKd | Binder |
| --- | --- |
| 3.78 | GYDWGPATDL [TJP3, O95049] |

Molecular target: T5, APBA1_1, Q02410
Assay: holdup assay
Set-up: key: below the threshold = too weak to quantify, mostly under pKd 3.1 to 4
Conditions: plain residues with an end cap or a label only (N-terminal biotin on a linker: ahx)

| pKd | Binder |
| --- | --- |
| below the threshold | GYDWGPATDL [TJP3, O95049] |

Molecular target: T6, APBA1_2, Q02410
Assay: holdup assay
Set-up: key: below the threshold = too weak to quantify, mostly under pKd 3.1 to 4
Conditions: plain residues with an end cap or a label only (N-terminal biotin on a linker: ahx)

| pKd | Binder |
| --- | --- |
| 4.17 | GYDWGPATDL [TJP3, O95049] |

Molecular target: T7, FRMPD1, Q5SYB0
Assay: holdup assay
Set-up: key: below the threshold = too weak to quantify, mostly under pKd 3.1 to 4
Conditions: plain residues with an end cap or a label only (N-terminal biotin on a linker: ahx)

| pKd | Binder |
| --- | --- |
| below the threshold | GYDWGPATDL [TJP3, O95049] |

Molecular target: T8, DFNB31_2, Q9P202
Assay: holdup assay
Set-up: key: below the threshold = too weak to quantify, mostly under pKd 3.1 to 4
Conditions: plain residues with an end cap or a label only (N-terminal biotin on a linker: ahx)

| pKd | Binder |
| --- | --- |
| below the threshold | GYDWGPATDL [TJP3, O95049] |

Molecular target: T9, PDZRN3_1, Q9UPQ7
Assay: holdup assay
Set-up: key: below the threshold = too weak to quantify, mostly under pKd 3.1 to 4
Conditions: plain residues with an end cap or a label only (N-terminal biotin on a linker: ahx)

| pKd | Binder |
| --- | --- |
| 3.69 | GYDWGPATDL [TJP3, O95049] |

Molecular target: NHERF4_1, Q86UT5-2
Assay: holdup assay
Set-up: key: below the threshold = too weak to quantify, mostly under pKd 3.1 to 4
Conditions: plain residues with an end cap or a label only (N-terminal biotin on a linker: ahx)

Sequence of NHERF4_1, Q86UT5-2 (Q86UT5 other isoform, or with tags, fused parts or gaps): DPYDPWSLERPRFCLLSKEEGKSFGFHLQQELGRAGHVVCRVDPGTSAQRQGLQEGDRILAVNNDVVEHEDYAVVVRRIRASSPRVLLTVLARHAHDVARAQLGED

| pKd | Binder |
| --- | --- |
| 3.72 | GYDWGPATDL [TJP3, O95049] |

Molecular target: T10, TIAM2, Q8IVF5
Assay: holdup assay
Set-up: key: below the threshold = too weak to quantify, mostly under pKd 3.1 to 4
Conditions: plain residues with an end cap or a label only (N-terminal biotin on a linker: ahx)

| pKd | Binder |
| --- | --- |
| below the threshold | GYDWGPATDL [TJP3, O95049] |

Molecular target: T11, MPDZ_10, O75970
Assay: holdup assay
Set-up: key: below the threshold = too weak to quantify, mostly under pKd 3.1 to 4
Conditions: plain residues with an end cap or a label only (N-terminal biotin on a linker: ahx)

| pKd | Binder |
| --- | --- |
| below the threshold | GYDWGPATDL [TJP3, O95049] |

Molecular target: MAGI2_4, Q86UL8
Assay: holdup assay
Set-up: key: below the threshold = too weak to quantify, mostly under pKd 3.1 to 4
Conditions: plain residues with an end cap or a label only (N-terminal biotin on a linker: ahx)

Sequence of MAGI2_4, Q86UL8 (Q86UL8 772-865): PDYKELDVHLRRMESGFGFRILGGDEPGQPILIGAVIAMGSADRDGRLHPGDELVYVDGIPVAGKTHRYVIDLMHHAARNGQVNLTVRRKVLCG

| pKd | Binder |
| --- | --- |
| 3.49 | GYDWGPATDL [TJP3, O95049] |

Molecular target: T12, HTRA3, P83110
Assay: holdup assay
Set-up: key: below the threshold = too weak to quantify, mostly under pKd 3.1 to 4
Conditions: plain residues with an end cap or a label only (N-terminal biotin on a linker: ahx)

| pKd | Binder |
| --- | --- |
| below the threshold | GYDWGPATDL [TJP3, O95049] |

Molecular target: Inadl_2, Q8NI35
Assay: holdup assay
Set-up: key: below the threshold = too weak to quantify, mostly under pKd 3.1 to 4
Conditions: plain residues with an end cap or a label only (N-terminal biotin on a linker: ahx)

Sequence of Inadl_2, Q8NI35 (Q8NI35 238-335): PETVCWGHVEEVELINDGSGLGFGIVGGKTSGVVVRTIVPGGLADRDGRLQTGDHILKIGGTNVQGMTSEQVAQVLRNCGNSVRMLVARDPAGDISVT

| pKd | Binder |
| --- | --- |
| below the threshold | GYDWGPATDL [TJP3, O95049] |

Source: article PMC9482650, “Quantitative fragmentomics allow affinity mapping of interactomes” (Nature Communications, 2022)
